Laboratory results published in US20240093191A1, “COMPOSITIONS AND METHODS FOR TREATING DISEASE ASSOCIATED WITH DUX4 OVEREXPRESSION” (RESEARCH INSTITUTE AT NATIONWIDE CHILDREN'S HOSPITAL, priority 2021, published 2024).

B1: U6.mir-675: U6 promoter-driven mir-675 expression plasmid with 40 nt 5' and 47 nt 3' flanking sequences (nucleic acid)
DNA: GACGCCGCCATCTCTAGGCCCGCGCCGGCCCCCTCGCACAGACTTGTGGGAGAAGCTCGGCTACTCCCCTGCCCCGGTTAATTTGCATATAATATTTCCTAGTAACTATAGAGGCTTAATGTGCGATAAAAGACAGATAATCTGTTCTTTTTAATACTAGCTACATTTTACATGATAGGCTTGGATTTCTATAAGAGATACAAATACTAAATTATTATTTTAAAAAACAGCACAAAAGGAAACTCACCCTAACTGTAAAGTAATTGTGTGTTTTGAGACTATAAATATCCCTTGGAGAAAAGCCTTGTTTGCGTTTAGTGAACCGTCAGATGGTACCGTTTAAACTCGAGCCCAGGGTCTGGTGCGGAGAGGGCCCACAGTGGACTTGGTGACGCTGTATGCCCTCACCGCTCAGCCCCTGGGACTAGAGCGGCCGCCACAGCGGGGAGATCCAGACATGATAAGATACATTTTTT
B2: H1.mir-675: commercially available H1 promoter mir-675 expression plasmid (SBI Biosciences) (nucleic acid)
DNA: GAACGCTGACGTCATCAACCCGCTCCAAGGAATCGCGGGCCCAGTGTCACTAGGCGGGAACACCCAGCGCGCGTGCGCCCTGGCAGGAAGATGGCTGTGAGGGACAGGGGAGTGGCGCCCTGCAATATTTGCATGTCGCTATGTGTTCTGGGAAATCACCATAAACGTGAAATGTCTTTGGATTTGGGAATCTTATAAGTTCTGTATGAGACCACCCCCCAGGGTCTGGTGCGGAGAGGGCCCACAGTGGACTTGGTGACGCTGTATGCCCTCACCGCTCAGCCCCTGGGGAATTCTTCGATTCTGCTTTTTT

Assays:
[1] = tested on: DUX4-FL (DUX4 ORF + 3'UTR, RenLuc-DUX4-FL); assay: Dual-luciferase assay, RenLuc-DUX4-FL reporter co-transfected with miRNA plasmids in HEK293 cells; assay type: cell-based, human
Description: FIG. 1A. Dual-luciferase assay to test the ability of U6.mir-675 to target DUX4. Shown here is the mir-675 expression plasmid used in this study. In this construct, the RNA polymerase III U6 promoter (U6p) controls the expression of mir-675. A terminal signal formed of a stretch of six T nucleotides allows the termination of transcription. On the right, the secondary structure of the mir-675 along with its 5′ and 3′ end flanking sequences (Boxed) is shown. At the 5′ end, the flanking sequence is of 40 nucleotides long and at the 3′ end, the flanking sequence is of 47 nucleotides long starting from the nucleotide at position 114. U6.mir-675 was tested to target DUX4 using the dual-luciferase assay. To do this, DUX4 was cloned in the RenLuc-DUX4-FL expression plasmid (FIG. 1A), i.e., DUX4-FL (DUX4 ORF without V5 tag+3′UTR) was PCR amplified using CMV.DUX4-FLΔV5 as template with the following primers: forward: 5′ […] 3′ (SEQ ID NO: 125), reverse: 5′ […] 3′ (SEQ ID NO: 126). The PCR product was then cloned into a previously designed RenLuc SD5 mutant plasmid using XhoI/SpeI restriction sites and the RenLuc.SD5 mutant-DUX4 3′UTR plasmid backbone. The Renilla luciferase gene has a splicing donor mutation (*SID5) that prevents the alternative splicing of the DUX4-FL mRNA (Ansseau et al. (2015) PLoS One, 10, e0118813). The dual-luciferase assay was performed by co-transfecting the RenLuc-DUX4-FL and U6.mir-675 expression plasmids into the human embryonic kidney HEK293 cells. 48 hours after transfection, both the Renilla and Firefly luciferase activities were measured. The latter was used to normalize for Renilla luciferase activity. The non-targeting RenLuc control backbone plasmid (RenLuc) was co-transfected with U6.mir-675 and the RenLuc-DUX4-FL co-transfected with U6.milacZ as negative control reactions. In the other reactions, mir-675 reduced the relative Renilla luciferase activity by 24±3% (P<0.0001, ANOVA, N=3), 28±2% (P<0.0001, ANOVA, N=3) and 33±3% (P<0.0001, ANOVA, N=3) at a molarity ratio U6.mir-675: RenLuc-DUX4-FL (n:n) of 10 to 1, 20 to 1 and 40 to 1, respectively. All readings were normalized to the U6.milacZ (negative control). Six replicate data were averaged per experiment and individual experiments were performed in triplicate (N=3). Results were reported as the average relative Renilla luciferase activity±SEM for all combined experiments. […] A representative western blot gel and the quantification results of three independent western blot replicates (N=3) performed on 15 μg of total protein extracts collected from HEK293 cells 24 hours after co-transfection with the AAV.CMV.DUX4-FL and the U6.mir-675 or the human long non-coding H19 expression plasmid (CMV.H19) is shown here. […]

[2] = tested on: DUX4 mRNA; assay: QPCR (SYBR green) of DUX4 mRNA in co-transfected HEK293 cells; assay type: cell-based, human; settings: 3 to 1 ratio with DUX4 construct, normalized to egfp, relative to milacZ
Method: H1.mir-675 construct was transfected in a 3 to 1 ratio with DUX4 construct in HEK293 cells, and collected RNA extracts 24 and 48h after transfection. Total RNA was prepared using the miRVANA isolation kit. DUX4 and egfp (used as the reference gene) mRNA levels were determined using the SYBR green master mix as described in materials and methods. All values were normalized to egfp, and were reported relative to milacZ treated samples. At 24 and 48h after transfection, DUX4 levels decreased by an average of 37±2% (P<0.0001, ANOVA, N=3) and 51±2% (P<0.0001, ANOVA, N=3), respectively. Results were reported as the average relative DUX4 expression±SEM of three replicates. […] When compared to the milacZ sample, mir-675-5p overexpressed levels were ˜2000-fold higher (P<0.0001, ANOVA, N=3). Results were reported as the average relative mir-675-5p expression (2^−ΔCq)±SEM of three replicates.

| Molecule | reduction of relative Renilla luciferase activity ([1]; miRNA:RenLuc-DUX4-FL molar ratio 10 to 1, 48 h, normalized to U6.milacZ) | reduction of relative Renilla luciferase activity ([1]; miRNA:RenLuc-DUX4-FL molar ratio 20 to 1, 48 h, normalized to U6.milacZ) | reduction of relative Renilla luciferase activity ([1]; miRNA:RenLuc-DUX4-FL molar ratio 40 to 1, normalized to milacZ) | decrease of DUX4 mRNA levels ([2]; 24 h) | decrease of DUX4 mRNA levels ([2]; 48 h) |
| --- | --- | --- | --- | --- | --- |
| B1 | 24±3% | 28±2% | 33±3% |  |  |
| B2 |  |  |  | 37±2% | 51±2% |
